The source of these data is doi:10.1101/2024.05.10.593535, “Single residue changes to the histone core catalyze neofunctionalization and impose fitness trade-offs” (bioRxiv, 2024).

This assay has as its target T1, S. pombe 14xHis-Spt6(282-1159) (S. pombe, UniProt Q09915 282-1159).
T1 construct: transcription elongation factor Spt6, S. pombe, truncated version corresponding to residues 282-1159; Held on Ni-NTA resin by the 14xHis tag in the pulldowns; also called PZH_670; source: E. coli BL21(DE3), purified (Ni Sepharose, dialysis)
T1 sequence (looked up): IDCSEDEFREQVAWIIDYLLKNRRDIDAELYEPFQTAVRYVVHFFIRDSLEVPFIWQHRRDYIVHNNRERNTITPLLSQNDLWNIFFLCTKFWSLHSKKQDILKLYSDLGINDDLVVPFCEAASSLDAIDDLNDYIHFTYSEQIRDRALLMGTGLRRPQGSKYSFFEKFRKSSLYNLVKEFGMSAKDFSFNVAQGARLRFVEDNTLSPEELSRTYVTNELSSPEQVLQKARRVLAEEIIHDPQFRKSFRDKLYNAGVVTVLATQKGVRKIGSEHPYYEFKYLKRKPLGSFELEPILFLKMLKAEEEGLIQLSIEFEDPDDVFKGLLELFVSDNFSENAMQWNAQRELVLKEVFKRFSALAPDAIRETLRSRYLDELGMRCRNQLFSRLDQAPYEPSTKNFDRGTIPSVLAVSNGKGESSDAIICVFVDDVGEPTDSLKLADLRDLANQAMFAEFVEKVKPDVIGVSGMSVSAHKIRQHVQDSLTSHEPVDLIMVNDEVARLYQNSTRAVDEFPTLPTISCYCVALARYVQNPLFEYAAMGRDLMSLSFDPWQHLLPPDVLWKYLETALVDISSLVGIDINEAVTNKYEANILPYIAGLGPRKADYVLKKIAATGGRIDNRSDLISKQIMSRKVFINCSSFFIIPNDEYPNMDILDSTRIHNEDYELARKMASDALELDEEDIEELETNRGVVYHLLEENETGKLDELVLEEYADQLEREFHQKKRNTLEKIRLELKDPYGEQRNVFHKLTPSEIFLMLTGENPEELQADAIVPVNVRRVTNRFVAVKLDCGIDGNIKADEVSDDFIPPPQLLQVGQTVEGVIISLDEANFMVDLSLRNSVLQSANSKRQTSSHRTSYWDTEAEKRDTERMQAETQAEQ
The assay can be described thus: pull-down; 14xHis-Spt6(282-1159) bound to Ni-NTA resin as bait, recombinant histone fusion as prey; 50 mM Tris pH 8, 150 mM NaCl, 2.5 mM DTT, 0.1% tween-20, RT; washing under physiological salt (150 mM NaCl) or stringent (300 mM NaCl) conditions; colloidal Coomassie staining. Particulars: both partners purified.

B1: S. pombe Pht1 (H2A.Z), full-length N-terminal GST fusion (natural protein)
chain: not shown
notes: histone H2A.Z (Pht1), S. pombe, full length; also called full-length Pht1
With B1, the binding result is reported as “binds”.
